Patent US7029700B2, “Micronized freeze-dried particles” (Brown University Research Foundation, priority 2000, dated 2006)

Key:
[1] = hGH aggregation during FLM, SEC-HPLC; assay type: physicochemical
Text: This frozen emulsion was then lyophilized for 48 hrs to remove both the aqueous and organic solvent.

[2] = Oral GH delivery, serum hGH by ELISA; assay type: in vivo; settings: rats, single oral dose by gavage in corn oil
Method: CD male rats (250 to 300 g) were obtained from Charles River Laboratories. Group 1 was fed 1.24 mg of stock GH emulsified in 1 ml of USP corn oil; Group 2 was fed 50 mg of PIN microspheres (2B43099-2.47% Zn-GH in PLGA) in 1 ml of corn oil; Group 3 was fed 50 mg of PIN microspheres (2B51799 - 2.47% Stock GH, 16% FeO in PLGA) in 1 ml of corn oil. Microspheres were suspended in corn oil by vortexing followed by brief (5 s) probe sonication. Stock GH was similarly emulsified in corn oil by vortexing and probe sonication. Animals were fasted overnight, briefly anesthetized with methoxyfluorane, and formulations fed via gavage with an 18-G stainless steel feeding tube and serum from all animals obtained according to the following schedule: −1 hr (pre-feeding control), 0.5 hr, 1 hr, 2 hr, 3 hr, 4 hr, 6 hr, 24 hr, 48 hr, and 72 hr post-feeding. Serum samples obtained via tail bleeding were analyzed for hGH using the hGH specific ELISA (DSL Inc, Webster. Tex.) according to manufacturer's protocols.

For “hGH: Stock human growth hormone (20 mg/ml) incorporated into PLGA 50:50 by FLM under varied conditions”, the “aggregation of best formulation combination” value ([1]; ethyl acetate, stock GH containing 0.2% F127, agitation time 15 s) was 0.7%, the “Percent Aggregation (SEC-HPLC)” value ([1]; ethyl acetate, 15 s vortex, 0.05% F127 + T20, 24 hr) was 1.9% and the “Percent Aggregation (SEC-HPLC)” value ([1]; ethyl acetate, 15 s vortex, 0.2% F127 + T20, 1 hr) was 1.0/1.0%. The “Percent Aggregation (SEC-HPLC)” value ([1]; ethyl acetate, 15 s vortex, 0.2% F127 + T20, 24 hr) was 1.0/1.0%, the “Percent Aggregation (SEC-HPLC)” value ([1]; ethyl acetate, 15 s vortex, 0.2% F127, 1 hr) was 0.7/0.7% and the “Percent Aggregation (SEC-HPLC)” value ([1]; ethyl acetate, 15 s vortex, 0.2% F127, 24 hr) was 0.7/0.7%. The “Percent Aggregation (SEC-HPLC)” value ([1]; ethyl acetate, 60 s vortex, 0.05% F127 + T20, 1 hr) was 0.9%, the “Percent Aggregation (SEC-HPLC)” value ([1]; ethyl acetate, 60 s vortex, 0.05% F127 + T20, 24 hr) was 1.0% and the “Percent Aggregation (SEC-HPLC)” value ([1]; ethyl acetate, 60 s vortex, 0.05% F127, 24 hr) was 2.0%. The “Percent Aggregation (SEC-HPLC)” value ([1]; ethyl acetate, 60 s vortex, 0.2% F127 + T20, 1 hr) was 1.1/1.1%, the “Percent Aggregation (SEC-HPLC)” value ([1]; ethyl acetate, 60 s vortex, 0.2% F127 + T20, 24 hr) was 1.1/1.1% and the “Percent Aggregation (SEC-HPLC)” value ([1]; ethyl acetate, 60 s vortex, 0.2% F127, 1 hr) was 1.5%. The “Percent Aggregation (SEC-HPLC)” value ([1]; ethyl acetate, 60 s vortex, 0.2% F127, 24 hr) was 1.7%, the “Percent Aggregation (SEC-HPLC)” value ([1]; methylene chloride, 15 s vortex, 0.05% F127 + T20, 1 hr) was 2.2% and the “Percent Aggregation (SEC-HPLC)” value ([1]; methylene chloride, 15 s vortex, 0.05% F127 + T20, 24 hr) was 2.7%. For the same substance, the “Percent Aggregation (SEC-HPLC)” value ([1]; methylene chloride, 15 s vortex, 0.05% F127, 1 hr) was 2.0%, the “Percent Aggregation (SEC-HPLC)” value ([1]; methylene chloride, 15 s vortex, 0.05% F127, 24 hr) was 4.5% and the “Percent Aggregation (SEC-HPLC)” value ([1]; methylene chloride, 15 s vortex, 0.2% F127 + T20, 1 hr) was 3.7%. The “Percent Aggregation (SEC-HPLC)” value ([1]; methylene chloride, 15 s vortex, 0.2% F127 + T20, 24 hr) was 8.8%, the “Percent Aggregation (SEC-HPLC)” value ([1]; methylene chloride, 15 s vortex, 0.2% F127, 1 hr) was 2.4% and the “Percent Aggregation (SEC-HPLC)” value ([1]; methylene chloride, 15 s vortex, 0.2% F127, 24 hr) was 5.0%. The “Percent Aggregation (SEC-HPLC)” value ([1]; methylene chloride, 60 s vortex, 0.05% F127 + T20, 1 hr) was 4.4%, the “Percent Aggregation (SEC-HPLC)” value ([1]; methylene chloride, 60 s vortex, 0.05% F127 + T20, 24 hr) was 11.4% and the “Percent Aggregation (SEC-HPLC)” value ([1]; methylene chloride, 60 s vortex, 0.05% F127, 24 hr) was 4.8%. For the same substance, the “Percent Aggregation (SEC-HPLC)” value ([1]; methylene chloride, 60 s vortex, 0.2% F127 + T20, 1 hr) was 10.2%, the “Percent Aggregation (SEC-HPLC)” value ([1]; methylene chloride, 60 s vortex, 0.2% F127 + T20, 24 hr) was 12.9% and the “Percent Aggregation (SEC-HPLC)” value ([1]; methylene chloride, 60 s vortex, 0.2% F127, 1 hr) was 4.2%. For the same substance, the “Percent Aggregation (SEC-HPLC)” value ([1]; methylene chloride, 60 s vortex, 0.2% F127, 24 hr) was 7.0%.
With “stock GH: 1.24 mg of stock GH emulsified in 1 ml of USP corn oil” the “serum hGH Cmax” value [2] was 3.37 ± 2.14 ng/mL.
